In paper PMC9098913, “In vitro reconstitution of Escherichia coli divisome activation” (Nature Communications, 2022):
Several values for one entry are separate records, joined by “and”; a condition that tells them apart may be missing. Equal values may be shown once. Read-outs that look alike come from different tables or passages of the source.

Key:
FtsA/Z co-filaments = assay type: biochemical, E. coli; settings: Fig. 2g, mean
Experimental: By fitting an exponential function to the increase of the PCC with time, we were able to extract the corresponding recruitment rate (Fig. 2f, g).
Subsequently, the chamber was washed 6x with reaction buffer, to remove bulk peptide. To visualize colocalization with either FtsZ or FtsA, either a mix of FtsA and Alexa488-FtsZ or Cy3-FtsA and FtsZ was added. […] The time-lapse videos were recorded for 10 min after the addition, with one frame per 2 s.

[1] = Membrane binding of FtsA by QCM-D
Experimental: To quantify the intrinsic membrane-affinity of the two versions of FtsA, we used Quartz Crystal Microbalance with Dissipation (QCM-D) and measured the hydrated mass of adsorbed protein on a membrane surface.
QCM-D experiments were performed with the QSense Analyzer from Biolin Scientific, equipped with silica-coated sensor (QSX 303). The sensors were cleaned for 10 s in a Zepto plasma cleaner, mounted in the QCM-D chambers and the acquisition of the experiment was first performed in the reaction buffer (50 mM Tris-HCl [pH 7.4], 150 mM KCl and 5 mM MgCl2). The supported lipid membrane was formed by rupturing 0.5 mM small unilamellar vesicles (SUVs) in the presence of MgCl2. The lipids used were 1,2-dioleoyl-sn-glycero-3-phosphocholine (DOPC) and 1,2-dioleoyl-sn-glycero-3-phospho-(1′-rac-glycerol) (DOPG) at a ratio of 67:33 mol%. After bilayer formations, the reaction buffer supplemented with 2 mM ATP, 2 mM GTP and 1 mM DTT was injected and the signal was recorded until a stable equilibrium was reached. Subsequently, increasing concentrations of FtsA were injected in the QCM-D chamber and changes in frequency and dissipation were monitored in real-time. The flow rate used in all experiments was 25 µl min^−1, and the temperature was set to 25 °C. To estimate the membrane-binding affinity, we extracted the frequency changes of the 5th acoustic harmonic for different FtsA concentrations and fitted a Hill equation y=S+(E−S)⋅(x^n/k^n+x^n) , where S is the starting point, E the end point, n is the Hill coefficient and k the dissociation constant. The measured binding affinity is an upper estimate, because QCM-D accounts not only on the dry molecular mass, but also on the hydration shell of the molecular assembly.

FtsZ [2] = settings: for FtsZ autocorrelation T: mean; for Autocorrelation Decay Tau: Fig. S2i, + FtsN
From the text: To measure reorganization dynamics of FtsZ filaments, we used a temporal correlation analysis based on the Image CorrelationJ 1o plugin. We quantified the PCC between the first frame to subsequent frames with increasing time lag (∆t). The decrease in the PCC was plotted against ∆t to obtain autocorrelation curves. Slower decay indicates more persistent structures. The rates of decay were extracted by fitting monoexponential decay to the autocorrelation curves y=a⋅e^−b⋅t+k , where a is the starting point, b is the decay rate and k is the final offset. The half time of the monoexponential decay was calculated via the decay rate.

FtsZ [3] = settings: 1.25 µM FtsZ, FtsA 0.1–0.8 µM
Experimental: Additionally, the reaction chamber contained 4 mM ATP and 4 mM GTP, as well as a scavenging system to minimize photobleaching effects: 30 mM d-glucose, 0.050 mg ml^−1 Glucose Oxidase, 0.016 mg ml^−1 Catalase, 1 mM DTT and 1 mM Trolox. Prior addition of all components a corresponding buffer volume was removed from the chamber to obtain a total reaction volume of 100 µl. The dynamic protein pattern was monitored by time-lapse TIRF microscopy at one frame per 2 s and 50 ms exposure time.
Treadmilling dynamics, were quantified using an automated image analysis protocol previously developed by our group. To visualize colocalization of the co-treadmilling FtsZ & FtsA filaments, we used dual-colour videos obtained at an acquisition rate of one frame per 2 s. The two channels were aligned using FIJI’s 3TP align plugin. Both channels were then subjected to the image subtraction protocol and colocalization was measured as described above.

FtsZ [4] = settings: for PCCdiff FtsA/FtsZ: 1.25 µM FtsZ, mean ± s.d.
From the text: For this aim, we prepared differential time lapse movies[24], where we subtract the intensities of consecutive frames to selectively visualize the growing ends of filament bundles (Fig. 1d). We then calculated the Pearson correlation coefficient between the two channels of the differential movies (PCCdiff), which quantifies the covariation of the fluorescence signals for FtsA and FtsZ at the growing end of a filament bundle with a time resolution of the acquisition rate[4],[23],[24].
Treadmilling dynamics, were quantified using an automated image analysis protocol previously developed by our group[24]. To visualize colocalization of the co-treadmilling FtsZ & FtsA filaments, we used dual-colour videos obtained at an acquisition rate of one frame per 2 s. The two channels were aligned using FIJI’s 3TP align plugin. Both channels were then subjected to the image subtraction protocol and colocalization was measured as described above.

[5] = Single-molecule diffusion coefficient of FtsA on the membrane; settings: for Diffusion Coefficient: single-particle tracking, n = 3
Experimental: First, we studied the behaviour of single FtsA proteins on the membrane surface.
After 5 min of incubation, single molecule time lapses were acquired every 125, 250, 500, and 1000 and 2000 ms, with an exposure time of 50 ms. Subsequently, the bulk concentration of FtsA was increased to 0.2/0.4/0.8 µM and time lapses were repeated as described above.
Single molecules of FtsA or FtsZ were tracked using the TrackMate plugin from ImageJ[43]. To obtain the residence time of FtsZ and FtsA, we performed a residence time analysis as described before[40],[47]. Shortly, single molecules were imaged at different acquisition rates (0.1–2 s) and the lifetime of the molecules was extracted from each data set. To account for photobleaching effect, the obtained lifetimes were plotted against the acquisition rate. […] Furthermore, we extracted the diffusion coefficient of FtsA single molecules at increasing concentrations. For this, we filtered the obtained data, by considering only trajectories which are present on the membrane for more than 0.4 s. […] Subsequently, the diffusion coefficient of FtsA molecules was estimated by fitting an MSD curve to each individual trajectory.
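For Autocorrelation Decay Tau in this document: FtsZ filament patterns imaged by time-lapse TIRF microscopy, one frame per 2 s, with ATP and GTP, Pearson correlation of first frame versus later frames, monoexponential fit, slower decay means persistent structures.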
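For FtsZ autocorrelation T in this document: FtsZ filament patterns imaged by time-lapse TIRF microscopy, one frame per 2 s, with ATP and GTP, Pearson correlation of first frame versus later frames, monoexponential fit, slower decay means persistent structures.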
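For FtsZ autocorrelation in this document: FtsZ filament patterns imaged by time-lapse TIRF microscopy, one frame per 2 s, with ATP and GTP, Pearson correlation of first frame versus later frames, monoexponential fit, slower decay means persistent structures.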
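For PCC FtsA/FtsZ, mean of experiment (head 'Fig.1e PCC'; n and values fit Fig. 1f PCCdiff) in this document: pearson correlation of FtsA and FtsZ channels in dual-colour TIRF movies after subtracting consecutive frames to isolate growing filament ends, one frame per 2 s, ATP and GTP present.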
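For PCCdiff FtsA/FtsZ in this document: pearson correlation of FtsA and FtsZ channels in dual-colour TIRF movies after subtracting consecutive frames to isolate growing filament ends, one frame per 2 s, ATP and GTP present.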

B1: FtsA R286W (protein)
chain: MIKATDRKLVVGLEIGTAKVAALVGEVLPDGMVNIIGVGSCPSRGMDKGGVNDLESVVKCVQRAIDQAELMADCQISSVYLALSGKHISCQNEIGMVPISEEEVTQEDVENVVHTAKSVRVRDEHRVLHVIPQEYAIDYQEGIKNPVGLSGVRMQAKVHLITCHNDMAKNIVKAVERCGLKVDQLIFAGLASSYSVLTEDERELGVCVVDIGGGTMDIAVYTGGALRHTKVIPYAGNVVTSDIAYAFGTPPSDAEAIKVRHGCALGSIVGKDESVEVPSVGGRPPWSLQRQTLAEVIEPRYTELLNLVNEEILQLQEKLRQQGVKHHLAAGIVLTGGAAQIEGLAACAQRVFHTQVRIGAPLNITGLTDYAQEPYYSTAVGLLHYGKESHLNGEAEVEKRVTASVGSWIKRLNSWLRKEF
modifications: Cy3 or Cy5 at the N-terminus in the labelled form (labelled CLEPTGG peptide conjugated to the 5xGly tag by sortagging); unlabelled protein also used; left off: TwinStrep-SUMO, N-terminal, cleaved | 5x
Recruitment rate of FtsN to FtsZ filaments (FtsA/Z co-filaments; Concentration 0.10 µM): 2.71 | Recruitment rate of FtsN to FtsZ filaments (FtsA/Z co-filaments; Concentration 0.20 µM): 3.32 | Recruitment rate of FtsN to FtsZ filaments (FtsA/Z co-filaments; Concentration 0.40 µM): 2.53 | Recruitment rate of FtsN to FtsZ filaments (FtsA/Z co-filaments; Concentration 0.80 µM): 2.36 | Mean of QCM-D experiments ([1]; 0.01 µM): 0.81 | Mean of QCM-D experiments ([1]; 0.05 µM): 1.79 | Mean of QCM-D experiments ([1]; 0.10 µM): 3.36 | amount of membrane-bound protein saturated at ([1]; QCM-D): 0.8 µM | Kd ([1]; QCM-D, Hill fit, 5th harmonic, DOPC:DOPG 67:33 mol%, pH 7.4, 150 mM KCl, 5 mM MgCl2, 2 mM ATP, 2 mM GTP, 25 °C, n = 2, upper estimate): 320 ± 50 nM | FtsZ autocorrelation (FtsZ [2]; 0.1 µM FtsA, Exp. 1): 160.44 s | FtsZ autocorrelation (FtsZ [2]; 0.1µM FtsA, Exp. 2): 218.46 s | FtsZ autocorrelation T (FtsZ [2]; 0.10 µM FtsA): 194.36 s | FtsZ autocorrelation (FtsZ [2]; 0.2 µM FtsA, Exp. 1): 153.77 s | FtsZ autocorrelation (FtsZ [2]; 0.2µM FtsA, Exp. 2): 78.66 s | FtsZ autocorrelation T (FtsZ [2]; 0.20 µM FtsA): 136.59 s | FtsZ autocorrelation (FtsZ [2]; 0.4 µM FtsA, Exp. 1): 331.53 s | FtsZ autocorrelation (FtsZ [2]; 0.4µM FtsA, Exp. 2): 146.15 s | FtsZ autocorrelation T (FtsZ [2]; 0.40 µM FtsA): 186.04 s | FtsZ autocorrelation (FtsZ [2]; 0.8 µM FtsA, Exp. 1): 113.86 s | FtsZ autocorrelation (FtsZ [2]; 0.8µM FtsA, Exp. 2): 144.33 s | Autocorrelation Decay Tau (FtsZ [2]; replicate 1): 4.55 min | Autocorrelation Decay Tau (FtsZ [2]; replicate 2): 8.41 min | Autocorrelation Decay Tau (FtsZ [2]; replicate 3): 7.40 min | effect on FtsZ treadmilling velocity (FtsZ [3]): could not detect a difference | PCC FtsA/FtsZ, mean of experiment (head 'Fig.1e_PCC'; n and values fit Fig. 1f PCCdiff) (FtsZ [4]; 0.1µM FtsAs, replicate column 1): 0.68 | PCC FtsA/FtsZ, mean of experiment (head 'Fig.1e_PCC'; n and values fit Fig. 1f PCCdiff) (FtsZ [4]; 0.1µM FtsAs, replicate column 2): 0.67 | PCC FtsA/FtsZ, mean of experiment (head 'Fig.1e_PCC'; n and values fit Fig. 1f PCCdiff) (FtsZ [4]; 0.1µM FtsAs, replicate column 3): 0.48 | PCC FtsA/FtsZ, mean of experiment (head 'Fig.1e_PCC'; n and values fit Fig. 1f PCCdiff) (FtsZ [4]; 0.2µM FtsAs, replicate column 1): 0.74 | PCC FtsA/FtsZ, mean of experiment (head 'Fig.1e_PCC'; n and values fit Fig. 1f PCCdiff) (FtsZ [4]; 0.2µM FtsAs, replicate column 2): 0.79 | PCC FtsA/FtsZ, mean of experiment (head 'Fig.1e_PCC'; n and values fit Fig. 1f PCCdiff) (FtsZ [4]; 0.2µM FtsAs, replicate column 3): 0.75 | PCC FtsA/FtsZ, mean of experiment (head 'Fig.1e_PCC'; n and values fit Fig. 1f PCCdiff) (FtsZ [4]; 0.2µM FtsAs, replicate column 4): 0.76 | PCC FtsA/FtsZ, mean of experiment (head 'Fig.1e_PCC'; n and values fit Fig. 1f PCCdiff) (FtsZ [4]; 0.2µM FtsAs, replicate column 5): 0.68 | PCCdiff FtsA/FtsZ (FtsZ [4]; 0.4 µM FtsA, p-value 1.82 × 10^−4): 0.76 ± 0.04 | PCC FtsA/FtsZ, mean of experiment (head 'Fig.1e_PCC'; n and values fit Fig. 1f PCCdiff) (FtsZ [4]; 0.4µM FtsAs, replicate column 1): 0.72 | PCC FtsA/FtsZ, mean of experiment (head 'Fig.1e_PCC'; n and values fit Fig. 1f PCCdiff) (FtsZ [4]; 0.4µM FtsAs, replicate column 2): 0.78 | PCC FtsA/FtsZ, mean of experiment (head 'Fig.1e_PCC'; n and values fit Fig. 1f PCCdiff) (FtsZ [4]; 0.4µM FtsAs, replicate column 3): 0.82 | PCC FtsA/FtsZ, mean of experiment (head 'Fig.1e_PCC'; n and values fit Fig. 1f PCCdiff) (FtsZ [4]; 0.4µM FtsAs, replicate column 4): 0.72 | PCCdiff FtsA/FtsZ (FtsZ [4]; 0.8 µM FtsA R286W): 0.76 ± 0.05 | PCC FtsA/FtsZ, mean of experiment (head 'Fig.1e_PCC'; n and values fit Fig. 1f PCCdiff) (FtsZ [4]; 0.8µM FtsAs, replicate column 1): 0.79 | PCC FtsA/FtsZ, mean of experiment (head 'Fig.1e_PCC'; n and values fit Fig. 1f PCCdiff) (FtsZ [4]; 0.8µM FtsAs, replicate column 2): 0.82 | PCC FtsA/FtsZ, mean of experiment (head 'Fig.1e_PCC'; n and values fit Fig. 1f PCCdiff) (FtsZ [4]; 0.8µM FtsAs, replicate column 3): 0.76 | PCC FtsA/FtsZ, mean of experiment (head 'Fig.1e_PCC'; n and values fit Fig. 1f PCCdiff) (FtsZ [4]; 0.8µM FtsAs, replicate column 4): 0.69 | Single Molecule Diffusion Constant ([5]; 0.1 µM FtsA, Exp. 1): 0.4979 µm2/s | Single Molecule Diffusion Constant ([5]; 0.1µM FtsA, Exp. 2): 0.3931 µm2/s | Single Molecule Diffusion Constant ([5]; 0.1 µM FtsA, Exp. 3): 0.3496 µm2/s | Diffusion Coefficient ([5]; 0.1 µM FtsA): 0.42 ± 0.06 µm^2/s | Single Molecule Diffusion Constant ([5]; 0.2 µM FtsA, Exp. 1): 0.1893 µm2/s | Single Molecule Diffusion Constant ([5]; 0.2µM FtsA, Exp. 2): 0.1662 µm2/s | Single Molecule Diffusion Constant ([5]; 0.2 µM FtsA, Exp. 3): 0.2033 µm2/s | Single Molecule Diffusion Constant ([5]; 0.4 µM FtsA, Exp. 1): 0.1363 µm2/s | Single Molecule Diffusion Constant ([5]; 0.4µM FtsA, Exp. 2): 0.0718 µm2/s | Single Molecule Diffusion Constant ([5]; 0.4 µM FtsA, Exp. 3): 0.1951 µm2/s | Single Molecule Diffusion Constant ([5]; 0.8 µM FtsA, Exp. 1): 0.0600 µm2/s | Single Molecule Diffusion Constant ([5]; 0.8µM FtsA, Exp. 2): 0.0636 µm2/s | Single Molecule Diffusion Constant ([5]; 0.8 µM FtsA, Exp. 3): 0.0391 µm2/s | Single Molecule Diffusion Constant, mean ([5]; 0.8 µM FtsA, mean of Exp. 1-3, n = 3, Fig. 3b): 0.054 µm2/s and 0.0542 µm2/s | Diffusion Coefficient ([5]; 0.8 µM FtsA): 0.05 ± 0.01 µm^2/s
